Patent publication US20140356358A1 (Amgen, published 2014)
Like-named read-outs stand apart in the source and are kept apart here.

Assays:
[1] = molecular target: T1, human neonatal Fc receptor (hFcRn) (human, UniProt P55899 24-290; P61769 21-119); experiment: BLI (Octet), association pH 6, dissociation pH 7.4
T1 construct: Biotinylated in the ELISA, Octet and yeast assays; also called human FcRn; huFcRn
Source text: To further characterize some of the variant Fc-fragments identified by the phage ELISA, binding of the variant Fc-fragments to FcRn at pH 6 and 7.4 was characterized for a subset of the identified variant Fc-fragments. DNA encoding selected variant Fc-fragment isolates, all from library L5, was introduced into a mammalian expression vector, which was used to transfect 293 6E cells using deacylated PEI essentially as described by Thomas et al. (Proc. Natl. Acad. Sci. 102(16): 5679-5684, 2005), the relevant portions of which are incorporated herein by reference. […] Concentrations were calculated using a standard curve created with a purified Fc fusion protein.
Biotinylated hFcRn at 100 nM was captured on streptavidin (SA) biosensors (ForteBio Inc., 18-5019) off-line at RT for 2 hours. Using these biotinylated hFcRn-coated SA biosensors in the Octet Red® system, association and dissociation of unlabeled proteins can be detected in real time via […] of light. […] Three association and dissociation conditions were set up: (1) association at pH 6 and dissociation at pH 6; (2) association at pH 6 and dissociation at pH 7.4; and (3) association at pH 7.4 and dissociation at pH 7.4. SA biosensors coated with biotinylated hFcRN were dipped into buffer at a specific pH for 1 min and then soaked in the samples containing variant Fc-fragments or controls at a specific pH for 5 min to allow binding to FcRn. The Fc biosensors were then soaked in buffer at a specific pH for 5 minutes more to allow the bound Fc-fragments to dissociate from FcRn. Detection of binding and dissociation of the Fc-fragments was possible through the use of bio-layer interferometry as implemented using the Octet Red® system, so that binding and dissociation were detected in real time.

[2] = molecular target: T1, human neonatal Fc receptor (hFcRn); experiment: SPR competition pH 5.5
cynomolgus monkey FcRn [3] = molecular target: T2, cynomolgus monkey FcRn (cynomolgus monkey, UniProt Q8SPV9 24-297; Q8SPW0 21-119, limits assumed); experiment: SPR competition pH 5.5
T2 construct: also called Cynomolgus FcRn
T2 sequence (Q8SPV9 24-297 limits assumed, chain 1 of 2): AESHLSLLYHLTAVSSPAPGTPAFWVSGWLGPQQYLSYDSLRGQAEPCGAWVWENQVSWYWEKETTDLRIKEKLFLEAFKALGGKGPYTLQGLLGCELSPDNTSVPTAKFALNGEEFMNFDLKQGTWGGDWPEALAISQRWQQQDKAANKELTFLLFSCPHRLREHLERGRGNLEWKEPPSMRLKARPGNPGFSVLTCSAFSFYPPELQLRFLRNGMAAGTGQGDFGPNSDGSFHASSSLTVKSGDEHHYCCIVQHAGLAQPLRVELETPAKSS
T2 sequence (Q8SPW0 21-119 limits assumed, chain 2 of 2): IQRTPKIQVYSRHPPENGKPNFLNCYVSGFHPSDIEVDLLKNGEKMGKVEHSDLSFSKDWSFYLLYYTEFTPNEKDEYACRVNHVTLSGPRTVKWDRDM

cynomolgus monkey FcRn [4] = molecular target: T2, cynomolgus monkey FcRn; experiment: SPR competition pH 7.4
[5] = molecular target: T1, human neonatal Fc receptor (hFcRn); experiment: SPR competition pH 5.5; remark: listed apart in the source
Protocol: (§1) Binding of variant Fc-fragments to human and cynomolgus monkey FcRn was tested using a BIAcore® T100 analysis system (GE Healthcare Bio-Sciences AB Private Limited Liability Company, Uppsala, Sweden) at both pH 5.5 and pH 7.4. The test consisted of incubating various concentrations of the variant Fc-fragments or control Fc-fragments with a fixed amount of human or cynomolgus monkey FcRn under binding conditions and subsequently measuring the amount of free, unbound FcRn in these mixtures by binding to a surface (in a flow cell of a CM5 (Biacore) chip) on which an Fc-fragment was immobilized. […] Thus, the amount of unbound FcRn in the mixture was quantitatively ascertained by surface plasmon resonance through use of the BIAcore® T100 analysis system. […] Initially, a group of 23 variant-Fc-fragments (Fc-5-1 being considered a control) identified in the experiments described above were tested for binding to human FcRn.
(§2) To obtain a reasonable signal for the different molecules and conditions tested, different assay conditions were used. For assays at pH 5.5, 10 nM of human or cynomolgus monkey FcRn was mixed with serial dilutions of the variant and control Fc-fragments being tested (which ranged from 0.1˜2,000 nM) and incubated for 1 hour at room temperature in 10 mM sodium acetate, pH 5.5, 150 mM NaCl, 0.005% P20, 0.1 mg/mL BSA. As positive controls, […] human and cynomolgus monkey FcRn were each incubated in the same solution, for the same time, and at the same temperature described immediately above, but without an added Fc-fragment.

cynomolgus monkey FcRn [6] = molecular target: T2, cynomolgus monkey FcRn; experiment: SPR competition pH 5.5; remark: listed apart in the source
Protocol: as §1, §2

T1 sequence (P55899 24-290 limits assumed, chain 1 of 2): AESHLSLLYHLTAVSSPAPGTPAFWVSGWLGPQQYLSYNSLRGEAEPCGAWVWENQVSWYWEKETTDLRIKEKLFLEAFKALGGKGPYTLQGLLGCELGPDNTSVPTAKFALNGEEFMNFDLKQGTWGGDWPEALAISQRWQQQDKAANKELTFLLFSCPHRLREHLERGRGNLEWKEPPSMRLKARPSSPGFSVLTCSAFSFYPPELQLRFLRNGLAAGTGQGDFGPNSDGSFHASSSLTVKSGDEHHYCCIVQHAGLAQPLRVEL
T1 sequence (P61769 21-119 limits assumed, chain 2 of 2): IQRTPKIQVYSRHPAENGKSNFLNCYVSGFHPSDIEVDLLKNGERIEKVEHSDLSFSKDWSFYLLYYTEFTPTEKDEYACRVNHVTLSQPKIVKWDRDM

B1: variant Fc-fragment 5-1-2 (other)
chain: EPKSCDKTHTCPPCPAPELLGGPSVFLFPPKPKDTLMISRTPEVTCVVVDVSHEDPEVKFNWYVDGVEVHNAKTKPREEQYNSTYRVVSVLTVLHQDWLNGKEYKCKVSNKALPAPIEKTISKAKGQPREPQVYTLPPSRDELTKNQVSLTCLVKGFYPSDIAVEWESGGCGMPIEFCGGNGQPENNYKTTPPVLDSDGSFFLYSKLTVDKSRWQQGNVFSCSVMHEALHNHYTQKSLSLSPGK
binding result [1]: binds

B2: variant Fc-fragment 5-1-3 (other)
chain: EPKSCDKTHTCPPCPAPELLGGPSVFLFPPKPKDTLMISRTPEVTCVVVDVSHEDPEVKFNWYVDGVEVHNAKTKPREEQYNSTYRVVSVLTVLHQDWLNGKEYKCKVSNKALPAPIEKTISKAKGQPREPQVYTLPPSRDELTKNQVSLTCLVKGFYPSDIAVEWESNGGGCGMPIEFCGGQPENNYKTTPPVLDSDGSFFLYSKLTVDKSRWQQGNVFSCSVMHEALHNHYTQKSLSLSPGK
binding result [1]: binds

B3: variant Fc-fragment 5-1-4 (other)
chain: EPKSCDKTHTCPPCPAPELLGGPSVFLFPPKPKDTLMISRTPEVTCVVVDVSHEDPEVKFNWYVDGVEVHNAKTKPREEQYNSTYRVVSVLTVLHQDWLNGKEYKCKVSNKALPAPIEKTISKAKGQPREPQVYTLPPSRDELTKNQVSLTCLVKGFYPSDIAVEWESNGQGGCGMPIEFCGGPENNYKTTPPVLDSDGSFFLYSKLTVDKSRWQQGNVFSCSVMHEALHNHYTQKSLSLSPGK
binding result [1]: binds

B4: variant Fc-fragment Fc-5-106-M4V (other)
chain: EPKSCDKTHTCPPCPAPELLGGPSVFLFPPKPKDTLMISRTPEVTCVVVDVSHEDPEVKFNWYVDGVEVHNAKTKPREEQYNSTYRVVSVLTVLHQDWLNGKEYKCKVSNKALPAPIEKTISKAKGQPREPQVYTLPPSRDELTKNQVSLTCLVKGFYPSDIAVEWESNGGCVFNVFNCGGGQPENNYKTTPPVLDSDGSFFLYSKLTVDKSRWQQGNVFSCSVMHEALHNHYTQKSLSLSPGK
EC50 [2]: 6.2 nM
EC50 (cynomolgus monkey FcRn [3]): 5 nM

B5: variant Fc-fragment Fc-5-106-M4I (other)
chain: EPKSCDKTHTCPPCPAPELLGGPSVFLFPPKPKDTLMISRTPEVTCVVVDVSHEDPEVKFNWYVDGVEVHNAKTKPREEQYNSTYRVVSVLTVLHQDWLNGKEYKCKVSNKALPAPIEKTISKAKGQPREPQVYTLPPSRDELTKNQVSLTCLVKGFYPSDIAVEWESNGGCVFNIFNCGGGQPENNYKTTPPVLDSDGSFFLYSKLTVDKSRWQQGNVFSCSVMHEALHNHYTQKSLSLSPGK
EC50 [2]: 2.6 nM
EC50 (cynomolgus monkey FcRn [3]): 3.2 nM
EC50 (cynomolgus monkey FcRn [4]): 970 nM

B6: variant Fc-fragment Fc-5-106 (other)
chain: EPKSCDKTHTCPPCPAPELLGGPSVFLFPPKPKDTLMISRTPEVTCVVVDVSHEDPEVKFNWYVDGVEVHNAKTKPREEQYNSTYRVVSVLTVLHQDWLNGKEYKCKVSNKALPAPIEKTISKAKGQPREPQVYTLPPSRDELTKNQVSLTCLVKGFYPSDIAVEWESNGGCVFNMFNCGGGQPENNYKTTPPVLDSDGSFFLYSKLTVDKSRWQQGNVFSCSVMHEALHNHYTQKSLSLSPGK
notes: soluble elsewhere
EC50 [5]: 5.3 nM
EC50 (cynomolgus monkey FcRn [6]): 3.6 nM
EC50 [2]: 5.4 nM
EC50 (cynomolgus monkey FcRn [3]): 4.6 nM

B7: variant Fc-fragment Fc-5-106-M4T (other)
chain: EPKSCDKTHTCPPCPAPELLGGPSVFLFPPKPKDTLMISRTPEVTCVVVDVSHEDPEVKFNWYVDGVEVHNAKTKPREEQYNSTYRVVSVLTVLHQDWLNGKEYKCKVSNKALPAPIEKTISKAKGQPREPQVYTLPPSRDELTKNQVSLTCLVKGFYPSDIAVEWESNGGCVFNTFNCGGGQPENNYKTTPPVLDSDGSFFLYSKLTVDKSRWQQGNVFSCSVMHEALHNHYTQKSLSLSPGK
EC50 [2]: 10 nM
EC50 (cynomolgus monkey FcRn [3]): 8.3 nM

B8: variant Fc-fragment 5-1-10 (other)
chain: EPKSCDKTHTCPPCPAPELLGGPSVFLFPPKPKDTLMISRTPEVTCVVVDVSHEDPEVKFNWYVDGVEVHNAKTKPREEQYNSTYRVVSVLTVLHQDWLNGKEYKCKVSNKALPAPIEKTISKAKGQPREPQVYTLPPSRDELTKNQVSLTCLVKGFYPSDIAVEWESGGGCGMPIEFCGGGPENNYKTTPPVLDSDGSFFLYSKLTVDKSRWQQGNVFSCSVMHEALHNHYTQKSLSLSPGK
binding result [1]: binds

B9: variant Fc-fragment 5-1-1 (other)
chain: EPKSCDKTHTCPPCPAPELLGGPSVFLFPPKPKDTLMISRTPEVTCVVVDVSHEDPEVKFNWYVDGVEVHNAKTKPREEQYNSTYRVVSVLTVLHQDWLNGKEYKCKVSNKALPAPIEKTISKAKGQPREPQVYTLPPSRDELTKNQVSLTCLVKGFYPSDIAVEWEGGCGMPIEFCGGSNGQPENNYKTTPPVLDSDGSFFLYSKLTVDKSRWQQGNVFSCSVMHEALHNHYTQKSLSLSPGK
binding result [1]: binds

B10: variant Fc-fragment 5-1-9 (other)
chain: EPKSCDKTHTCPPCPAPELLGGPSVFLFPPKPKDTLMISRTPEVTCVVVDVSHEDPEVKFNWYVDGVEVHNAKTKPREEQYNSTYRVVSVLTVLHQDWLNGKEYKCKVSNKALPAPIEKTISKAKGQPREPQVYTLPPSRDELTKNQVSLTCLVKGFYPSDIAVEWESGGCGMPIEFCGGPENNYKTTPPVLDSDGSFFLYSKLTVDKSRWQQGNVFSCSVMHEALHNHYTQKSLSLSPGK
binding result [1]: binds

B11: variant Fc-fragment 5-1-5 (other)
chain: EPKSCDKTHTCPPCPAPELLGGPSVFLFPPKPKDTLMISRTPEVTCVVVDVSHEDPEVKFNWYVDGVEVHNAKTKPREEQYNSTYRVVSVLTVLHQDWLNGKEYKCKVSNKALPAPIEKTISKAKGQPREPQVYTLPPSRDELTKNQVSLTCLVKGFYPSDIAVEWESNGQPGGCGMPIEFCGGENNYKTTPPVLDSDGSFFLYSKLTVDKSRWQQGNVFSCSVMHEALHNHYTQKSLSLSPGK
binding result [1]: binds

B12: variant Fc-fragment 5-1-6 (other)
chain: EPKSCDKTHTCPPCPAPELLGGPSVFLFPPKPKDTLMISRTPEVTCVVVDVSHEDPEVKFNWYVDGVEVHNAKTKPREEQYNSTYRVVSVLTVLHQDWLNGKEYKCKVSNKALPAPIEKTISKAKGQPREPQVYTLPPSRDELTKNQVSLTCLVKGFYPSDIAVEWESNGQPEGGCGMPIEFCGGNNYKTTPPVLDSDGSFFLYSKLTVDKSRWQQGNVFSCSVMHEALHNHYTQKSLSLSPGK
binding result [1]: binds

B13: variant Fc-fragment 5-1-7 (other)
chain: EPKSCDKTHTCPPCPAPELLGGPSVFLFPPKPKDTLMISRTPEVTCVVVDVSHEDPEVKFNWYVDGVEVHNAKTKPREEQYNSTYRVVSVLTVLHQDWLNGKEYKCKVSNKALPAPIEKTISKAKGQPREPQVYTLPPSRDELTKNQVSLTCLVKGFYPSDIAVEWESNGQPENGGCGMPIEFCGGNYKTTPPVLDSDGSFFLYSKLTVDKSRWQQGNVFSCSVMHEALHNHYTQKSLSLSPGK
binding result [1]: binds

B14: variant Fc-fragment 5-1-8 (other)
chain: EPKSCDKTHTCPPCPAPELLGGPSVFLFPPKPKDTLMISRTPEVTCVVVDVSHEDPEVKFNWYVDGVEVHNAKTKPREEQYNSTYRVVSVLTVLHQDWLNGKEYKCKVSNKALPAPIEKTISKAKGQPREPQVYTLPPSRDELTKNQVSLTCLVKGFYPSDIAVEWESNGQPENNGGCGMPIEFCGGYKTTPPVLDSDGSFFLYSKLTVDKSRWQQGNVFSCSVMHEALHNHYTQKSLSLSPGK
binding result [1]: binds
